Reference: patent US20230127087

Molecular target: Glypican-3 (GPC3) (UniProt P51654)
Experiment: filter
Settings: n = BzdU (benzyl-modified dU); unit not given; Bmax 0.79; SB18T0.05, 37 C; 32P-labelled aptamer, protein titrated from 100 nM

Sequence of Glypican-3 (GPC3) (P51654 25-554): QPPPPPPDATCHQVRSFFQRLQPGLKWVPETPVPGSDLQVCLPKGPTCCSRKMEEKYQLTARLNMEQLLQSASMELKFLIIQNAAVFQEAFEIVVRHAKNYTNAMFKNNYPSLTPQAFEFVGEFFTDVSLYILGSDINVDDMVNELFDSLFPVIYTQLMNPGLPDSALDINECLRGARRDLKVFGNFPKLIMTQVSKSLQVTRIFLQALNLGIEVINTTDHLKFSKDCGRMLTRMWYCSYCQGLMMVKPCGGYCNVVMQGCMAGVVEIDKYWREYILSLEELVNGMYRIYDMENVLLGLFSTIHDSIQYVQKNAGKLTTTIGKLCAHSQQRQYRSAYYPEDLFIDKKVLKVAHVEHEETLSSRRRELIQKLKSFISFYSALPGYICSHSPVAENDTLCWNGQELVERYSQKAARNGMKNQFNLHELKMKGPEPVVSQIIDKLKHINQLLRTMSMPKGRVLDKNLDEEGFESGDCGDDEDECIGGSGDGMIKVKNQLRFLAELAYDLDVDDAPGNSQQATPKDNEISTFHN

“GGGAAGTGAATGCGTTGAATTATGTCCCTTCAGTCATCAC [2428-12-10 (12-10)]” was tested, and the Kd was 1.5.
